Data taken from patent EP4663659A1 (Merck Patent GmbH, dated 2025).

Target: T1, mouse CD40 (mouse, UniProt P27512 20-193, limits assumed)
T1 construct: also called mCD40
T1 sequence (looked up): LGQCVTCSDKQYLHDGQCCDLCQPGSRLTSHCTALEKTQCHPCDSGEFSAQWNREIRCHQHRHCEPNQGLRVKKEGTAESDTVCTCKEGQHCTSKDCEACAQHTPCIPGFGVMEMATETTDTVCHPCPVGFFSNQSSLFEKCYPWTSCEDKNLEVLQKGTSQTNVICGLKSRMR
Experiment: not described; the molecule was used as isotype control in mice

binding result: no binding
B1: Fusion protein 1 (FP1), anti-MUC-1 × anti-CD40 bispecific binding protein (bispecific antibody, human IgG1, lambda, L234A L235A)
heavy: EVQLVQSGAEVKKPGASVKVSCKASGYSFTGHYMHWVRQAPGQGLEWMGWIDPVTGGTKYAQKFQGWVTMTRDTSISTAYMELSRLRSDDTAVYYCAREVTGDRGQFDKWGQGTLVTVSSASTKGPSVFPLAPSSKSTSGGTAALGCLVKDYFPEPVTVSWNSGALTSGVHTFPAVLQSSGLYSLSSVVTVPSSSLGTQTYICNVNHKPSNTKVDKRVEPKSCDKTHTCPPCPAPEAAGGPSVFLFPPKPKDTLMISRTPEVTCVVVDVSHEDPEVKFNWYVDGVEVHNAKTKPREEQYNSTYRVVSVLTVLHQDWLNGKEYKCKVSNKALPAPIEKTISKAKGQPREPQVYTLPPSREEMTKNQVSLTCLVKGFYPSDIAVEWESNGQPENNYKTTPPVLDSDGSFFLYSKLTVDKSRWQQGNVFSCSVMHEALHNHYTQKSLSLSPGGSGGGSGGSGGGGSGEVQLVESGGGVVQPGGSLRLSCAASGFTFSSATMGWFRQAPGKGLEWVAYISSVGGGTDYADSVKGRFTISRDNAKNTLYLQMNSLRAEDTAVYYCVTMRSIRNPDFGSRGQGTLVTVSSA
light: SYVLTQPPSVSVAPGKTARITCGGNNIGSKSVHWYQQKPGQAPVLVIYYGSNRPSGIPERFSGSNSGNTATLTISRVEAGDEADYYCQVWDSSSDWVFGGGTKLTVLGQPKAAPSVTLFPPSSEELQANKATLVCLISDFYPGAVTVAWKADSSPVKAGVETTTPSKQSNNKYAASSYLSLTPEQWKSHKSYSCQVTHEGSTVEKTVAPTECS
notes: Fully human anti-MUC-1 IgG1 with one anti-human CD40 VHH fused by a 15 aa GS linker to the C-terminus of each heavy chain; also called Anti MUC-1 × CD40; anti MUC-1 × hCD40 A02
